From patent US20200216558A1 (US Dept. of Health and Human Services, published 2020)

B1: VH single domain antibody LH4 (phage clone) (VHH)
VHH: QVQLVQSGGGLVQPGGSLRLSCAASSFYFDDYEMSWVRQAPGKALEWIGRIYTSGSTNYNPSLKSRVTISRDNSKNTLYLQMNTLRAEDTATYYCARGYCSGGSCYFDYWGQGTLVTVSS
notes: Human VH single domain
B2: LH4-PE38 (other)
VH: QVQLVQSGGGLVQPGGSLRLSCAASSFYFDDYEMSWVRQAPGKALEWIGRIYTSGSTNYNPSLKSRVTISRDNSKNTLYLQMNTLRAEDTATYYCARGYCSGGSCYFDYWGQGTLVTVSS
notes: One of the three immunotoxins of group m11; also called LH4-PE38 immunotoxin
B3: VH single domain antibody LH6 (phage clone) (VHH)
VHH: QVQLVQSGGGLVQPGGSLRLSCAASDFYFDDYEMSWVRQAPGKGLEWVSTISGSGGGTYYADSVKGRFTISRDNSKNTLYLQMNTLRAEDTATYYCARGYSYDDSRYFDYWGQGTLVTVSS
notes: Human VH single domain
B4: LH1-PE38 (other)
VH: QVQLVQSGGGLVQPGGSLRLSCAASDFDFAAYEMSWVRQAPGKGLEWIGEINHSGSTTYNPSLKSRVTISRDNSKNTLYLQMNTLRAEDTAVYYCATAVHYYDSSGYYHDAFDIWGQGTLVTVSS
notes: One of the three immunotoxins of group m11; also called LH1-PE38 immunotoxin
B5: VH single domain antibody LH1 (phage clone) (VHH)
VHH: QVQLVQSGGGLVQPGGSLRLSCAASDFDFAAYEMSWVRQAPGKGLEWIGEINHSGSTTYNPSLKSRVTISRDNSKNTLYLQMNTLRAEDTAVYYCATAVHYYDSSGYYHDAFDIWGQGTLVTVSS
notes: Human VH single domain (not camelid)
B6: VH single domain antibody LH2 (phage clone) (VHH)
VHH: QVQLVQSGGGLVQPGGSLRLSCAASDFYFYSYEVSWVRQAPGKALEWIGYIYYSGSTTYNPSLKSRVTISRDNSKNTLYLQMNTLRAEDTAIYYCAVRDNWNDVDYWGQGTLVTVSS
notes: Human VH single domain
B7: VH single domain antibody LH3 (phage clone) (VHH)
VHH: QVQLVQSGGGLVQPGGSLRLSCAASSFSFADYEMSWVRQAPGKALEWIGRIYTSGSTNYNPSLKSRVTISRDNSKNTLYLQMNTLRAEDTATYYCARGYSGYDGSHYFDYWGQGTLVTVSS
notes: Human VH single domain
B8: LH7-Fc fusion protein (Fc fusion)
chain: QVQLVQSGGGLVQPGGSLRLSCAASDFYFYDYEMSWVRQAPGKGLEWIGTVSYSGSTYYNPSLKSRVTISRDNSKNTLYLQMNTLRAEDTAMYYCARGYSYDDSRYFDYWGQGTLVTVSS
notes: Soluble LH7 as used in Octet, flow cytometry and HEK293 Supertopflash assays; also called LH7 antibody; LH7 single domain antibody; not shown: Fc: antibodies were fused with either human Fc (hFc) or mouse IgG Fc (mFc); which one was used in this assay, its subcla
B9: VH single domain antibody LH7 (phage clone) (VHH)
VHH: QVQLVQSGGGLVQPGGSLRLSCAASDFYFYDYEMSWVRQAPGKGLEWIGTVSYSGSTYYNPSLKSRVTISRDNSKNTLYLQMNTLRAEDTAMYYCARGYSYDDSRYFDYWGQGTLVTVSS
notes: Human VH single domain
B10: LH7-PE38 monomeric immunotoxin (other)
VH: QVQLVQSGGGLVQPGGSLRLSCAASDFYFYDYEMSWVRQAPGKGLEWIGTVSYSGSTYYNPSLKSRVTISRDNSKNTLYLQMNTLRAEDTAMYYCARGYSYDDSRYFDYWGQGTLVTVSS

Key:
[1] = target: T1, recombinant GPC2-hFc fusion protein (human, UniProt Q8N158 24-553); assay: monoclonal phage ELISA, coated GPC2-hFc vs BSA
T1 construct: range 24-553; Made in 293T cells with an IL-2 secretion signal (not part of the secreted protein); biotinylated for the Octet assay; also called GPC2 protein; recombinant human GPC2; not shown: human IgG Fc (hFc) at the C terminus
T1 sequence (looked up): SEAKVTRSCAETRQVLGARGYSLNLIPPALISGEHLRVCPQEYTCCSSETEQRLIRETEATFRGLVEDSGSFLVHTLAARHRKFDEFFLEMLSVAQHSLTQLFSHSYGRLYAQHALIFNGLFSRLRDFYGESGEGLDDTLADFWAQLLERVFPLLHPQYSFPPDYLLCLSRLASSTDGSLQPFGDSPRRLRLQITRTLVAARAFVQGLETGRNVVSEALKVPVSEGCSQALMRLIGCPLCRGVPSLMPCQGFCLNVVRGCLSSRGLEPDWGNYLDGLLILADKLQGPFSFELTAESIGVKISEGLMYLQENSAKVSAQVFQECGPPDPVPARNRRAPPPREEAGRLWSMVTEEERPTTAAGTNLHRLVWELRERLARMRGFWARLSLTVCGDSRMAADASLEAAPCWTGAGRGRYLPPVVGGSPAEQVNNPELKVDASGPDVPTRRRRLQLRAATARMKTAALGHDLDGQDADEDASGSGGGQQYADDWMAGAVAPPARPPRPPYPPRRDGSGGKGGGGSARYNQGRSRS

recombinant human GPC1 = target: T2, recombinant human GPC1 (human, UniProt P35052 24-530, limits assumed); assay: monoclonal phage ELISA on recombinant glypicans
T2 sequence (looked up): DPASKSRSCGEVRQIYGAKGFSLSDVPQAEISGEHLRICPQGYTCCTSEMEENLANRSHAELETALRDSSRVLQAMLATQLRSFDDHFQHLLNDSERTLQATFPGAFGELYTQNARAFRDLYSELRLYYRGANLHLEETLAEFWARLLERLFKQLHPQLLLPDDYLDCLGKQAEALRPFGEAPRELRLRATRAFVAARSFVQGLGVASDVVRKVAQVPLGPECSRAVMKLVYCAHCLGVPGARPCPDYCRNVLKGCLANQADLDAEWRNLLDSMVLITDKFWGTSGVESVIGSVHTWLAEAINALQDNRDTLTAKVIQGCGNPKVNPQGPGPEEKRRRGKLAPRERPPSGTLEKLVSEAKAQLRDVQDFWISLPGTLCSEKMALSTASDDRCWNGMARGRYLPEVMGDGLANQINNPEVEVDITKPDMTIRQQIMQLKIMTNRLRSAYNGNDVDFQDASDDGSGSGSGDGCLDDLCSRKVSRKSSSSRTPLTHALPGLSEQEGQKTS
Method: (§1) Both plate and phage were blocked with 3% skim milk in PBS/0.05% Tween-20 for 1 hour at room temperature. Then pre-blocked phage supernatant was added to the plate. Binding was detected by HRP-conjugated mouse anti-M13 antibody (GE Healthcare).

recombinant human GPC3 = recombinant human GPC3 (human, UniProt P51654 25-559, limits assumed); assay: monoclonal phage ELISA on recombinant glypicans
Method: as §1

recombinant mouse GPC2 = target: T3, recombinant mouse GPC2 (mouse, UniProt Q8BKV1 22-556, limits assumed); assay: monoclonal phage ELISA on recombinant glypicans
T3 sequence (looked up): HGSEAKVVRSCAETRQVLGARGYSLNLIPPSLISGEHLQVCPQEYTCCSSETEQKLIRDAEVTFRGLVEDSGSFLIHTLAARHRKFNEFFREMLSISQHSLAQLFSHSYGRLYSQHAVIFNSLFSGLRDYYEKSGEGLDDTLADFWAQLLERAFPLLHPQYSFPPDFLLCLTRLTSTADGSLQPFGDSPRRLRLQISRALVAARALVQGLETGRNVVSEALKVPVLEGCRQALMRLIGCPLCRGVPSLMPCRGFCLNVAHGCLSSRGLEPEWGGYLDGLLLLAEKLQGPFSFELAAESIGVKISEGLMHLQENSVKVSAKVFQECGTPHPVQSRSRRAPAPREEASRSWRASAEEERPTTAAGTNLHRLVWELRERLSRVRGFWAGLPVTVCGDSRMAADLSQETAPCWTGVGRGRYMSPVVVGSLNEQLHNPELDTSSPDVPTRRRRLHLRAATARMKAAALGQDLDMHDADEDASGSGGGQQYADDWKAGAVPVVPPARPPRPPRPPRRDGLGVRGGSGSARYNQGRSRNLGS
Method: as §1

[2] = target: T1, recombinant GPC2-hFc fusion protein; assay: ELISA on coated GPC2-hFc, detection with anti-Pseudomonas exotoxin A antibody and HRP secondary
[3] = target: T1, recombinant GPC2-hFc fusion protein; assay: Octet RED96 BLI, biotinylated GPC2-hFc on streptavidin biosensors, 30 °C
Method: (§2) Briefly, all experiments were performed at 30° C. and reagents were prepared in 0.1% BSA, 0.1% Tween20 PBS, pH 7.4 buffer. […] Data analysis was performed using the Fort\tilde{e}Bio analysis software provided with the instrument.

[4] = target: T1, recombinant GPC2-hFc fusion protein; assay: Octet RED96 biolayer interferometry, biotinylated GPC2-hFc on streptavidin biosensors, LH7 at 1000, 500 and 100 nM
Method: as §2

[5] = target: T1, recombinant GPC2-hFc fusion protein; assay: ELISA, coated GPC2-hFc, detection with anti-Pseudomonas exotoxin A antibody
Method: Then a series of diluted immunotoxins were added to each well. Anti-Pseudomonas exotoxin A antibody (Sigma-Aldrich) and HRP-conjugated secondary antibody (Jackson Immunoresearch) were used to detect binding. EC₅₀ values were determined by Prism 6.0 software (GraphPad).

Sequence of recombinant human GPC3 (P51654 25-559 limits assumed): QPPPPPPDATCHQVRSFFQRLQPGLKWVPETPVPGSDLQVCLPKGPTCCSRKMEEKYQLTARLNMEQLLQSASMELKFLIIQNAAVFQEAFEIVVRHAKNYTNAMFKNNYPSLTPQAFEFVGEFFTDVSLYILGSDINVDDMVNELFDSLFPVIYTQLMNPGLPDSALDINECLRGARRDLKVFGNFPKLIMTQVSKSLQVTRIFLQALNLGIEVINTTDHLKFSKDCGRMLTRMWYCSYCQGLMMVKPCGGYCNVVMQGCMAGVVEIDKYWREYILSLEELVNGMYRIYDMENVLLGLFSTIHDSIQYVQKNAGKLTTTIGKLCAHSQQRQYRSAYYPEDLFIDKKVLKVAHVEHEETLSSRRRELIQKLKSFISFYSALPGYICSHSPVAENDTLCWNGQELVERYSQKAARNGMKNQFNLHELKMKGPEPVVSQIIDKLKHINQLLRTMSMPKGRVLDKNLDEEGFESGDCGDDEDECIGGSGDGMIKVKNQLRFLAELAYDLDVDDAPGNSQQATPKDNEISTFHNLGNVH

Binder | fold OD450 nm on GPC2-hFc over BSA [1] | binding result (recombinant human GPC1) | binding result (recombinant human GPC3) | binding result (recombinant mouse GPC2) | EC50 [2] | also measured
B1 | ≥ 5 fold | no binding | no binding | binds | – | –
B2 | – | – | – | – | 43.9 nM | –
B3 | ≥ 5 fold | no binding | no binding | binds | – | –
B4 | – | – | – | – | 4.55 nM | EC50 (read off the curve) [2]: ~0.2 µg/mL
B5 | ≥ 5 fold | no binding | no binding | no binding | – | –
B6 | ≥ 5 fold | no binding | no binding | no binding | – | –
B7 | ≥ 5 fold | binds | – | binds | – | –
B8 | – | – | – | – | – | Kd [3]: 9.8 nM; koff [4]: 0.00052 s⁻¹; kon [4]: 53100 M⁻¹ s⁻¹
B9 | ≥ 5 fold | no binding | no binding | no binding | – | –
B10 | – | – | – | – | 18.4 nM | EC50 [5]: 18 nM; EC50 (read off the curve) [2]: ~1 µg/mL
